Reference: patent US20260098095A1 (Hoffmann-La Roche, published 2026)

Legend:
Experiment in all cases: cell-based or functional assay
[1] = target: T1, HLA-A2/MAGE-A4 peptide MHC (pMHC) complex on cells (human)
[2] = target: T1, HLA-A2/MAGE-A4 peptide MHC (pMHC) …; remark: listed apart in the source
[3] = target: T1, HLA-A2/MAGE-A4 peptide MHC (pMHC) …; remark: listed apart in the source
[4] = target: pfkA (human)
[5] = target: DPYSL3 (human)
[6] = target: gutQ (human)
[7] = target: UBE2V2 (human)
[8] = target: DPYSL4 (human)
[9] = target: PIGG (human)
[10] = target: CRMP1 (human)
[11] = target: BNRF1 (human)
[12] = target: EDC3 (human)
[13] = target: FBXO34 (human)
[14] = target: SLC45A1 (human)
[15] = target: KEAP1 (human)
[16] = target: UNC80 (human)
[17] = target: VPS13D (human)
[18] = target: MAGEB2 (human)
[19] = target: ARF1 (human)
[20] = target: ARF3 (human)
[21] = target: URB1 (human)
[22] = target: GAPDHS (human)
[23] = target: CCS (human)
[24] = target: KDM1A (human)
[25] = target: DYNC1H1 (human)
[26] = target: MTOR (human)
[27] = target: PKP1 (human)
[28] = target: HLA-A2 with peptide MAGB6 on T2 cells (human)
[29] = target: HLA-A2 with peptide MAGA10 on T2 cells (human)
[30] = target: T9A (human)
[31] = target: V10A (human)
[32] = target: G1A (human)
[33] = target: V2A (human)
[34] = target: Y3A (human)
[35] = target: D4A (human)
[36] = target: G5A (human)
[37] = target: R6A (human)
[38] = target: E7A (human)
[39] = target: H8A (human)
[40] = target: T1, HLA-A2/MAGE-A4 peptide MHC (pMHC) …; remark: listed apart in the source

B1: Molecule F (bispecific antibody, V domains shown)
VH 1: not shown
VL 1: SSELTQDPAVSVALGQTVRITCQGDSLRSYYASWYQQKPGQAPVLVIYGKNNRPSGIPDRFSGSSSSNTASLTITGAQAEDEADYYCNSRMSSRYHHDVFGGGTKLTVL
VH 2: not shown
VL 2: QAVVTQEPSLTVSPGGTVTLTCGSSTGAVTTSNYANWVQEKPGQAFRGLIGGTNKRAPGTPARFSGSLLGGKAALTLSGAQPEDEAEYYCALWYSNLWVFGGGTKLTVL
EC50 [pM] 24 h, T-cell mediated lysis of MAGE-A4 peptide pulsed T2 cells [1]: 1.5 pM
EC50 [pM], activation of Jurkat-NFAT reporter cells (luminescence, 6 h) with MAGE-A4 peptide pulsed T2 cells [2]: 41.6 pM
EC50 [pM], T-cell mediated lysis of A-375 cells, 24 h [3]: 822 pM
EC50 [pM], T-cell mediated lysis of C-33A cells, 24 h [3]: 186 pM
EC50 [pM], T-cell mediated lysis of IM-9 cells, 24 h [3]: 8.3 pM
EC50 [pM], T-cell mediated lysis of NCI-H1755 cells, 24 h [3]: 2.7 pM
EC50 [pM], T-cell mediated lysis of NCI-H2023 cells, 24 h [3]: 890 pM
EC50 [pM], T-cell mediated lysis of U266B1 cells, 24 h [3]: 352 pM
EC50 [pM], T-cell mediated lysis of UMUC-3 cells, 24 h [3]: 429 pM
% of MAGE-A4 signal, Jurkat-NFAT [4]: 0.8%
% of MAGE-A4 signal, Jurkat-NFAT; grey (>2%) [5]: 61.9%
% of MAGE-A4 signal, Jurkat-NFAT [6]: 0.73%
% of MAGE-A4 signal, Jurkat-NFAT [7]: 0.71%
% of MAGE-A4 signal, Jurkat-NFAT; grey (>2%) [8]: 14.2%
% of MAGE-A4 signal, Jurkat-NFAT [9]: 0.78%
% of MAGE-A4 signal, Jurkat-NFAT; grey (>2%) [10]: 6.54%
% of MAGE-A4 signal, Jurkat-NFAT [11]: 0.55%
% of MAGE-A4 signal, Jurkat-NFAT [12]: 0.89%
% of MAGE-A4 signal, Jurkat-NFAT [13]: 0.78%
% of MAGE-A4 signal, Jurkat-NFAT [14]: 0.68%
% of MAGE-A4 signal, Jurkat-NFAT [15]: 0.66%
% of MAGE-A4 signal, Jurkat-NFAT [16]: 1.05%
% of MAGE-A4 signal, Jurkat-NFAT; grey (>2%) [17]: 172%
% of MAGE-A4 signal, Jurkat-NFAT; grey (>2%) [18]: 126%
% of MAGE-A4 signal, Jurkat-NFAT [19]: 1.58%
% of MAGE-A4 signal, Jurkat-NFAT [20]: 1.53%
% of MAGE-A4 signal, Jurkat-NFAT; grey (>2%) [21]: 78.4%
% of MAGE-A4 signal, Jurkat-NFAT [22]: 1.01%
% of MAGE-A4 signal, Jurkat-NFAT; grey (>2%) [23]: 76.8%
% of MAGE-A4 signal, Jurkat-NFAT [24]: 0.9%
% of MAGE-A4 signal, Jurkat-NFAT [25]: 0.64%
% of MAGE-A4 signal, Jurkat-NFAT [26]: 0.42%
% of MAGE-A4 signal, Jurkat-NFAT [27]: 0.64%
% of MAGE-A4 signal, Jurkat-NFAT; grey (>2%) [28]: 130%
% of MAGE-A4 signal, Jurkat-NFAT; grey (>2%) [29]: 145%
EC50, Jurkat-NFAT activation [30]: 0.45 nM
EC50, Jurkat-NFAT activation [31]: 0.791 nM
EC50, Jurkat-NFAT activation [32]: 0.259 nM
EC50, Jurkat-NFAT activation [33]: 6.57 nM
EC50, Jurkat-NFAT activation [34]: 15 nM
EC50, Jurkat-NFAT activation [35]: 9.95 nM
EC50, Jurkat-NFAT activation [36]: 1.09 nM
EC50, Jurkat-NFAT activation [37]: 0.196 nM
EC50, Jurkat-NFAT activation [38]: 0.332 nM
EC50, Jurkat-NFAT activation [39]: 0.0813 nM
EC50, Jurkat-NFAT activation [40]: 0.0954 nM

B2: Molecule E (bispecific antibody, V domains shown)
VH 1: not shown
VL 1: SSELTQDPAVSVALGQTVRITCQGDSLRSYYASWYQQKPGQAPVLVIYGKNNRPSGIPDRFSGSSSGNTASLTITGAQAEDEADYYCNSRQSSYYHHIVFGGGTKLTVL
VH 2: not shown
VL 2: QAVVTQEPSLTVSPGGTVTLTCGSSTGAVTTSNYANWVQEKPGQAFRGLIGGTNKRAPGTPARFSGSLLGGKAALTLSGAQPEDEAEYYCALWYSNLWVFGGGTKLTVL
EC50 [pM] 24 h, T-cell mediated lysis of MAGE-A4 peptide pulsed T2 cells [1]: 32.7 pM
EC50 [pM], activation of Jurkat-NFAT reporter cells (luminescence, 6 h) with MAGE-A4 peptide pulsed T2 cells [2]: 877 pM
EC50 [pM], T-cell mediated lysis of C-33A cells, 24 h [3]: 3980 pM
EC50 [pM], T-cell mediated lysis of IM-9 cells, 24 h [3]: 393 pM
EC50 [pM], T-cell mediated lysis of NCI-H1755 cells, 24 h [3]: 84.4 pM
EC50 [pM], T-cell mediated lysis of UMUC-3 cells, 24 h [3]: ~5800 pM
% of MAGE-A4 signal, Jurkat-NFAT [4]: 0.26%
% of MAGE-A4 signal, Jurkat-NFAT [5]: 1.04%
% of MAGE-A4 signal, Jurkat-NFAT [6]: 0.31%
% of MAGE-A4 signal, Jurkat-NFAT [7]: 0.4%
% of MAGE-A4 signal, Jurkat-NFAT [8]: 0.48%
% of MAGE-A4 signal, Jurkat-NFAT [9]: 0.26%
% of MAGE-A4 signal, Jurkat-NFAT [10]: 0.37%
% of MAGE-A4 signal, Jurkat-NFAT [11]: 0.45%
% of MAGE-A4 signal, Jurkat-NFAT [12]: 0.54%
% of MAGE-A4 signal, Jurkat-NFAT; grey (>2%) [13]: 4.03%
% of MAGE-A4 signal, Jurkat-NFAT [14]: 0.38%
% of MAGE-A4 signal, Jurkat-NFAT [15]: 0.34%
% of MAGE-A4 signal, Jurkat-NFAT [16]: 0.49%
% of MAGE-A4 signal, Jurkat-NFAT; grey (>2%) [17]: 47%
% of MAGE-A4 signal, Jurkat-NFAT; grey (>2%) [18]: 108%
% of MAGE-A4 signal, Jurkat-NFAT [19]: 0.93%
% of MAGE-A4 signal, Jurkat-NFAT [20]: 0.85%
% of MAGE-A4 signal, Jurkat-NFAT [21]: 1.2%
% of MAGE-A4 signal, Jurkat-NFAT [22]: 0.39%
% of MAGE-A4 signal, Jurkat-NFAT; grey (>2%) [23]: 38.6%
% of MAGE-A4 signal, Jurkat-NFAT [24]: 0.34%
% of MAGE-A4 signal, Jurkat-NFAT [25]: 0.17%
% of MAGE-A4 signal, Jurkat-NFAT [26]: 0.29%
% of MAGE-A4 signal, Jurkat-NFAT [27]: 0.43%
% of MAGE-A4 signal, Jurkat-NFAT; grey (>2%) [28]: 110%
% of MAGE-A4 signal, Jurkat-NFAT; grey (>2%) [29]: 43.2%
EC50, Jurkat-NFAT activation [30]: 4.26 nM
EC50, Jurkat-NFAT activation [31]: 7.46 nM
EC50, Jurkat-NFAT activation [32]: 2.72 nM
EC50, Jurkat-NFAT activation [33]: 4.07 nM
EC50, Jurkat-NFAT activation [34]: 2.06 nM
EC50, Jurkat-NFAT activation [35]: 22.3 nM
EC50, Jurkat-NFAT activation [36]: 9.44 nM
EC50, Jurkat-NFAT activation [37]: 2.37 nM
EC50, Jurkat-NFAT activation [38]: 2.98 nM
EC50, Jurkat-NFAT activation [39]: 1.23 nM
EC50, Jurkat-NFAT activation [40]: 1.62 nM
